Changes are numbered by the printed parent chain. Names and notes keep the numbering of the source.
T1: FcgRIIaR (human, UniProt P12318 34-217)
T1 construct: extracellular domain; Allotype R131; also called FcγRIIa R; FcgRIIa type R; not shown: His tag attached to the C terminus
T1 sequence (looked up): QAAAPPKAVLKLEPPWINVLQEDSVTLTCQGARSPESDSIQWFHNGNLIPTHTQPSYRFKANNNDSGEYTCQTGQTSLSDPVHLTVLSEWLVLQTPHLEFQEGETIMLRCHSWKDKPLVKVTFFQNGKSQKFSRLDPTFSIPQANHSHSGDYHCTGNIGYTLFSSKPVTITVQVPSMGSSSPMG

T2: FcgRIIaH (human, UniProt P12318 34-217)
T2 construct: extracellular domain; Allotype H131; also called FcγRIIa H; FcgRIIa type H; not shown: His tag attached to the C terminus
T2 sequence (looked up): T1 sequence (looked up) with R134H

T3: FcgRIIb (human, UniProt P31994 43-217)
T3 construct: extracellular domain; also called FcγRIIb; CD32B; not shown: His tag attached to the C terminus
T3 sequence (looked up): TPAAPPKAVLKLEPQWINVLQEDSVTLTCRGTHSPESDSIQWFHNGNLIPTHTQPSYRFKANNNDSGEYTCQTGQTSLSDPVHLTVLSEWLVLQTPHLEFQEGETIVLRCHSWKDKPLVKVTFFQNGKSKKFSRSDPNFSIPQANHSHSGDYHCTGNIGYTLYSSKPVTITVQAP

B1: GpH7-A5/GpH7-B3-15-02A/GpL16-k0 (antibody, human IgG1, kappa)
heavy 1: not shown
heavy 2: not shown
light: DIVMTQSPLSLPVTPGEPASISCQASESLVHSNRNTYLHWYLQKPGQSPQLLIYKVSNRFSGVPDRFSGSGSGTDFTLKISRVEAEDVGVYYCSQNTHVPPTFGQGTKVEIERTVAAPSVFIFPPSDEQLKSGTASVVCLLNNFYPREAKVQWKVDNALQSGNSQESVTEQDSKDSTYSLSSTLTLSKADYEKHKVYACEVTHQGLSSPVTKSFNRGEC
notes: H2 S298A
B2: GpH7-TA2/GpH7-B3-01-15Y/GpL16-k0 (antibody, human IgG1, kappa)
heavy 1: QVQLVQSGAEVKKPGASVTVSCKASGYTFTDYEMHWIRQPPGEGLEWIGAIDPKTGDTAYSESFQDRVTLTADKSTSTAYMELSSLTSEDTAVYYCTRFYSYTYWGQGTLVTVSSASTKGPSVFPLAPSSKSTSGGTAALGCLVKDYFPEPVTVSWNSGALTSGVHTFPAVLQSSGLYSLSSVVTVPSSSLGTQTYICNVNHKPSNTKVDKKVEPKSCDKTHTCPPCPAPELLWGPSVFLFPPKPKDTLMISRTPEVTCVVVDVSHEDPEVKFNWYVDGVEVHNAKTKPREEQYNSTYRVVSVLTVLHQDWLNGKEYKCKVSNKALPAPIEKTISKAKGQPREPQVYTLPPSRKELTKNQVSLTCLVKGFYPSDIAVEWESNGQPENNYKTTPPVLDSDGSFFLYSKLTVDKSRWQQGNVFSCSVMHEALHNRYTQKSLSLSP
heavy 2: not shown
light: B1 light
notes: H1 G236W; H2 L234Y
B3: H240-Kn120/H240-Hl068/L73-k0 (antibody, human IgG1, kappa)
heavy 1: QDQLVQSGAEVKKPGASVKVSCKASGFNIKDTYIQWVRQAPGQGLEWMGRIDPLRKQTKYREKFEGRVTITADTSTNTAYMELSSLRSEDTAVYYCVRSGREFDYWGQGTLVTVSSASTKGPSVFPLAPSSKSTSGGTAALGCLVKDYFPEPVTVSWNSGALTSGVHTFPAVLQSSGLYSLSSVVTVPSSSLGTQTYICNVNHKPSNTKVDKKVEPKSCDKTHTCPPCPAPEYYWGPMVFLFPPKPKDTLMISRTPEVTCVVVDVSDEDPEVKFNWYVDGVEVHNAKTKPREEQYNATYRVVSVLTVLHQDWLNGKEYKCKVSNKDLPAPIEKTISKAKGQPREPQVCTLPPSRDELTKNQVSLWCLVKGFYPSDIAVEWESNGQPENNYKTTPPVLDSDGSFFLYSKLTVDKSRWQQGNVFSCSVMHEALHNHYTQKSLSLSP
heavy 2: QDQLVQSGAEVKKPGASVKVSCKASGFNIKDTYIQWVRQAPGQGLEWMGRIDPLRKQTKYREKFEGRVTITADTSTNTAYMELSSLRSEDTAVYYCVRSGREFDYWGQGTLVTVSSASTKGPSVFPLAPSSKSTSGGTAALGCLVKDYFPEPVTVSWNSGALTSGVHTFPAVLQSSGLYSLSSVVTVPSSSLGTQTYICNVNHKPSNTKVDKKVEPKSCDKTHTCPPCPAPELLGGPSVFLFPPKPKDTLMISRTPEVTCVVVDVSHEEPEVKFNWYVDGVEVHNAKTKPREEQYNSTYRVVSVLTVLHQDWLNGKEYKCKVSNDALPKPIEETISKAKGQPREPQVYTLPPSRCELTKNQVSLSCAVKGFYPSDIAVEWESNGQPENNYKTTPPVLDSDGSFFLVSKLTVDKSRWQQGNVFSCSVMHEALHNHYTQKSLSLSP
light: DIQMTQSPSSLSASVGDRVTITCRASQDIHKYIAWYQQKPGQAPRLLIQYTSTLQPGVPSRFSGSGSGTDYTFTISSLQPEDIATYYCLQYEQLRTFGGGTKVEIKRTVAAPSVFIFPPSDEQLKSGTASVVCLLNNFYPREAKVQWKVDNALQSGNSQESVTEQDSKDSTYSLSSTLTLSKADYEKHKVYACEVTHQGLSSPVTKSFNRGEC
notes: Heterodimerized (knobs-into-holes) anti-epiregulin IgG1 antibody
B4: H240-Kn120/H240-Hl150/L73-k0 (antibody, human IgG1, kappa)
heavy 1: B3 heavy 1
heavy 2: B3 heavy 2 with I331T
light: B3 light
notes: Heterodimerized anti-epiregulin IgG1 antibody; I332T in H240-Hl068
B5: H240-Kn120/H240-Hl170/L73-k0 (antibody, human IgG1, kappa)
heavy 1: B3 heavy 1
heavy 2: B3 heavy 2 with L327A
light: B3 light
notes: Heterodimerized anti-epiregulin IgG1 antibody; L328A in H240-Hl068
B6: H240-Kn120/H240-Hl174/L73-k0 (antibody, human IgG1, kappa)
heavy 1: B3 heavy 1
heavy 2: B3 heavy 2 with I331E
light: B3 light
notes: Heterodimerized anti-epiregulin IgG1 antibody; I332E in H240-Hl068
B7: H240-Kn120/H240-Hl182/L73-k0 (antibody, human IgG1, kappa)
heavy 1: B3 heavy 1
heavy 2: B3 heavy 2 with A230H
light: B3 light
notes: Heterodimerized anti-epiregulin IgG1 antibody; A231H in H240-Hl068
B8: H240-Kn138/H240-Hl068/L73-k0 (antibody, human IgG1, kappa)
heavy 1: B3 heavy 1 with L327W
heavy 2: B3 heavy 2
light: B3 light
notes: Heterodimerized anti-epiregulin IgG1 antibody; L328W in H240-Kn120
B9: H240-Kn138/H240-Hl147/L73-k0 (antibody, human IgG1, kappa)
heavy 1: B3 heavy 1 with L327W
heavy 2: B3 heavy 2 with L327W
light: B3 light
notes: Heterodimerized anti-epiregulin IgG1 antibody; L328W in both H chains
B10: H240-Kn166/H240-Hl170/L73-k0 (antibody, human IgG1, kappa)
heavy 1: B3 heavy 1 with L327A
heavy 2: B3 heavy 2 with L327A
light: B3 light
notes: Heterodimerized anti-epiregulin IgG1 antibody; L328A in both H chains
B11: H240-Kn172/H240-Hl177/L73-k0 (antibody, human IgG1, kappa)
heavy 1: B3 heavy 1 with I331M
heavy 2: B3 heavy 2 with I331Q
light: B3 light
notes: Heterodimerized anti-epiregulin IgG1 antibody; I332M in H240-Kn120 and I332Q in H240-Hl068
B12: H240-Kn173/H240-Hl068/L73-k0 (antibody, human IgG1, kappa)
heavy 1: B3 heavy 1 with I331Q
heavy 2: B3 heavy 2
light: B3 light
notes: Heterodimerized anti-epiregulin IgG1 antibody; I332Q in H240-Kn120
B13: H240-Kn178/H240-Hl068/L73-k0 (antibody, human IgG1, kappa)
heavy 1: B3 heavy 1 with K333Y
heavy 2: B3 heavy 2
light: B3 light
notes: Heterodimerized anti-epiregulin IgG1 antibody; K334Y in H240-Kn120

target: FcγRIIIa extracellular domain with C-terminal His tag (human, UniProt P08637 17-208); test: SPR (Biacore), relative binding activity; GpH7-A5/GpH7-B3/GpL16-k0 = 100
Sequence (P08637 17-208): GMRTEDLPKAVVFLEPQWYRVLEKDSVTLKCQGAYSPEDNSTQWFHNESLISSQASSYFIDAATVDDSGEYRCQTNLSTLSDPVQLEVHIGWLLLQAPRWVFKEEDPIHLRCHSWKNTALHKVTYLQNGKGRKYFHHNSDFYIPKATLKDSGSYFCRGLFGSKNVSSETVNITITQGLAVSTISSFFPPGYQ

Row | Binder | FcγRIIIa BINDING ACTIVITY
1 | B1 | 163%
2 | B2 | 130%

target: T4, FcgRIa (human, UniProt P12314 16-292); test: SPR (Biacore); KD of H240-Kn120/H240-Hl068/L73-k0 divided by KD of the sample
T4 construct: extracellular domain; Soluble extracellular domain expressed in FreeStyle293 cells; also called FcγRIa; FcγRI; not shown: His tag attached to the C terminus
T4 sequence (P12314 16-292): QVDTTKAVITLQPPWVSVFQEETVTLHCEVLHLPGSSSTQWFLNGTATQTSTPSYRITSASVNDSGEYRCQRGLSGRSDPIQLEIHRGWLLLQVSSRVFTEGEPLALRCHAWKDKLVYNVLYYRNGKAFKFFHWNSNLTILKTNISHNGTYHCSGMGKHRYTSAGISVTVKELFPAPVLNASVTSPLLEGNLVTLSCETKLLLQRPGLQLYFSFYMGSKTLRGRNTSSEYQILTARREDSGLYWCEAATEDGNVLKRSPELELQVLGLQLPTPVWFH
Description: (§1) Analysis of interaction between objective antibody and the FcγR was carried out using Biacore T100 (GE Healthcare), Biacore T200, Biacore A100, and Biacore 4000. HBS-EP+ (GE Healthcare) was used as the running buffer, and the measurement temperature was set to 25° C. Chips produced by immobilizing the antigen peptide by the amine coupling method to a Series S sensor Chip CM5 (GE Healthcare), chips produced by allowing preliminarily biotinylated antigen peptides to interact with and immobilize onto a Series S Sensor Chip SA (certified) (GE Healthcare), chips produced by immobilizing Protein L (ACTIGEN, BioVision) to Series S Sencor Chip CM5 (GE Healthcare), or chips produced by immobilizing Protein A/G (Thermo Scientific) to Series S Sencor Chip CM5 (GE Healthcare) were used. Antibodies of interest were captured onto these chips, and allowed to interact to each FcγR diluted with running buffer. To regenerate and repeatedly use the chip, the antibodies captured onto the chip were washed off by reacting 10 mM glycine-HCl, pH 1.5.

Row | Binder | relative KD
3 | B3 | 1
4 | B4 | 0.4
5 | B5 | 0.8
6 | B6 | 1.1
7 | B7 | 0.9
8 | B8 | 1
9 | B9 | 0.5
10 | B10 | 2.4
11 | B11 | 0.6
12 | B12 | 1.3
13 | B13 | 0.7

target: T1, FcgRIIaR; test: as above
Description: as §1

Row | Binder | relative KD
14 | B3 | 1
15 | B4 | 1
16 | B5 | 2.3
17 | B6 | 0.7
18 | B7 | 0.5
19 | B8 | 1.1
20 | B9 | 1.8
21 | B10 | 0.6
22 | B11 | 0.7
23 | B12 | 0.5
24 | B13 | 0.8

target: T2, FcgRIIaH; test: as above
Description: as §1

Row | Binder | relative KD
25 | B3 | 1
26 | B4 | 1.2
27 | B5 | 2.3
28 | B6 | 0.7
29 | B7 | 0.5
30 | B8 | 1.6
31 | B9 | 0.3
32 | B10 | 1.9
33 | B11 | 0.7
34 | B12 | 0.7
35 | B13 | 0.6

target: T3, FcgRIIb; test: as above
Description: as §1

Row | Binder | relative KD
36 | B3 | 1
37 | B4 | 1.5
38 | B5 | 2.2
39 | B6 | 1.2
40 | B7 | 0.6
41 | B8 | 1.2
42 | B9 | 1.4
43 | B10 | 0.8
44 | B11 | 0.9
45 | B12 | 0.5
46 | B13 | 1.4

target: T5, FcgRIIIaF (human, UniProt P08637 17-208); test: as above
T5 construct: extracellular domain; Allotype F158; also called FcγRIIIa F; not shown: His tag attached to the C terminus
T5 sequence (P08637 17-208): as the sequence (P08637 17-208) above
Description: as §1

Row | Binder | relative KD
47 | B3 | 1
48 | B4 | 0.7
49 | B5 | 0.6
50 | B6 | 4.3
51 | B7 | 0.7
52 | B8 | 0.6
53 | B9 | 0.1
54 | B10 | 0.5
55 | B11 | 1.1
56 | B12 | 1.2
57 | B13 | 1.6

target: T6, FcgRIIIaV (human, UniProt P08637 17-208); test: as above
T6 construct: extracellular domain; Allotype V158; also called FcγRIIIa V; not shown: His tag attached to the C terminus
T6 sequence (P08637 17-208 F176V limits assumed): as the sequence (P08637 17-208) above, with F160V counted along it
Description: as §1

Row | Binder | relative KD
58 | B3 | 1
59 | B4 | 0.6
60 | B5 | 0.4
61 | B6 | 10
62 | B7 | 1.2
63 | B8 | 0.8
64 | B9 | 0
65 | B10 | 0.4
66 | B11 | 1.6
67 | B12 | 0.9
68 | B13 | 1.9
